From patent US20240132548A1 (Janssen / Centocor, published 2024)
Substitutions are numbered along the chain they refer to.

Columns and labels:
Experiment in all cases: BLI (Octet), biotinylated mAb on streptavidin sensors, culture supernatant
[1] = biological target: T1, RSV181179 (I152M + K226M + D486N) (respiratory syncytial virus, subgroup B …, UniProt O36634 26-109; P13843 137-540)
T1 construct: Measured in crude culture supernatant, no furin co-transfection
T1 chain 1: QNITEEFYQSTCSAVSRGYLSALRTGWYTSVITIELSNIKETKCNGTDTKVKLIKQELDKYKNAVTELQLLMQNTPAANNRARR
T1 chain 2: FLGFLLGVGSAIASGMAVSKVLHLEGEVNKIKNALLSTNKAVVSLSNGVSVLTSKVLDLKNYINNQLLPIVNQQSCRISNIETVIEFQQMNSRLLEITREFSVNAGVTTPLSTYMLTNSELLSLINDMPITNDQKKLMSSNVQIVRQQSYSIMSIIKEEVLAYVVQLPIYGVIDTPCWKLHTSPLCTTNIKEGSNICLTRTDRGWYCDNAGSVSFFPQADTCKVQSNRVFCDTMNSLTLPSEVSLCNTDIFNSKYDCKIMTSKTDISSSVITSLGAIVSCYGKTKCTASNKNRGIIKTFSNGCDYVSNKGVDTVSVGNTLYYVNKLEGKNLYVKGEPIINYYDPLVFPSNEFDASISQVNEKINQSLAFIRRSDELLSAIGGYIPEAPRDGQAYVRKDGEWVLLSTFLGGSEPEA
Description: (§1) Quantitative Octet (BioLayer Interferometry) was used for measuring protein concentration in the supernatants at day of harvest and after 7 or 30 days storage at 4° C. CR9501 (an antibody specifically recognizing pre-fusion RSV F protein, which comprises the variable regions of the antibodies 58C5 as described in WO2012/006596) and CR9506 (recognizing pre-fusion and post-fusion RSV F protein and comprising a heavy chain variable region comprising SEQ ID NO: 21, and a light chain variable region comprising SEQ ID NO: 22) were biotinylated by standard protocols and immobilized on Streptavidin biosensors (ForteBio, Portsmouth, UK).
(§2) Afterwards, the coated biosensors were blocked in mock cell culture supernatant. A quantitative experiment was performed as follows: temperature 30° C., shaking speed 1000 rpm, time of the assay 300 sec. The concentration of the protein was calculated using a standard curve. The standard curve was prepared for each coated antibody CR9501 and CR9506 using the pre-fusion RSV FA protein (SEQ ID NO: 19; described previously in WO17174568) diluted in mock medium. […] The data analysis was done using the ForteBio Data Analysis 10.0.1.6 software (ForteBio).

[2] = biological target: T2, RSV181182 (I152M + K226M + D486N + S215P + P101Q + D489Y + T357R + N371Y) (respiratory syncytial virus, subgroup B …, UniProt O36634 26-109; P13843 137-540)
T2 chain 1: T1 chain 1 with P76Q
T2 chain 2: T1 chain 2 with S79P, T221R, N235Y, D353Y
Description: as §1, §2

[3] = biological target: T3, RSV180916 (I152M + K226M + D486N + S215P + L203I + P101Q; C-tag, RSV A signal peptide) (respiratory syncytial virus, subgroup B …, UniProt O36634 26-109; P13843 137-540)
T3 chain 1: T1 chain 1 with P76Q
T3 chain 2: T1 chain 2 with L67I, S79P
Description: as §1, §2

[4] = biological target: T4, RSV180915 (I152M + K226M + D486N + S215P) (respiratory syncytial virus, subgroup B …, UniProt O36634 26-109; P13843 137-540)
T4 chain 1: T1 chain 1
T4 chain 2: T1 chain 2 with S79P
Description: as §1, §2

Measured: binding result

B1: CR9506 (antibody, human IgG1, kappa, V domains shown)
VH: EVQLVQSGAEVKKPGSSVKVSCKASGGTFSRSLITWVRQAPGQGLEWMGEISLVFGSAKNAQKFQGRVTITADESTSTAHMEMISLKHEDTAVYYCAAHQYGSGTHNNFWDESELRFDLWGQGTLVTVSS
VL: DIVMTQSPSSLSASVGDRVTIACRASQSIGTYLNWYQQKPGKAPKLLIYAASSLQSGVPSRFSGSGSGTHFTLAISSLQAEDFATYSCQQSYTIPYTFGQGTKLEIKR
notes: Biotinylated for Octet; coated and also used HRP-labelled as detection antibody in the ELISA
binds: all assays above
